Measurements from patent publication US20210388089A1 (COMPASS THERAPEUTICS, published 2021).

T1: recombinant NRP2 Fc protein (UniProt O60462 23-864, limits assumed)
T1 construct: Construct not described
T1 sequence (looked up): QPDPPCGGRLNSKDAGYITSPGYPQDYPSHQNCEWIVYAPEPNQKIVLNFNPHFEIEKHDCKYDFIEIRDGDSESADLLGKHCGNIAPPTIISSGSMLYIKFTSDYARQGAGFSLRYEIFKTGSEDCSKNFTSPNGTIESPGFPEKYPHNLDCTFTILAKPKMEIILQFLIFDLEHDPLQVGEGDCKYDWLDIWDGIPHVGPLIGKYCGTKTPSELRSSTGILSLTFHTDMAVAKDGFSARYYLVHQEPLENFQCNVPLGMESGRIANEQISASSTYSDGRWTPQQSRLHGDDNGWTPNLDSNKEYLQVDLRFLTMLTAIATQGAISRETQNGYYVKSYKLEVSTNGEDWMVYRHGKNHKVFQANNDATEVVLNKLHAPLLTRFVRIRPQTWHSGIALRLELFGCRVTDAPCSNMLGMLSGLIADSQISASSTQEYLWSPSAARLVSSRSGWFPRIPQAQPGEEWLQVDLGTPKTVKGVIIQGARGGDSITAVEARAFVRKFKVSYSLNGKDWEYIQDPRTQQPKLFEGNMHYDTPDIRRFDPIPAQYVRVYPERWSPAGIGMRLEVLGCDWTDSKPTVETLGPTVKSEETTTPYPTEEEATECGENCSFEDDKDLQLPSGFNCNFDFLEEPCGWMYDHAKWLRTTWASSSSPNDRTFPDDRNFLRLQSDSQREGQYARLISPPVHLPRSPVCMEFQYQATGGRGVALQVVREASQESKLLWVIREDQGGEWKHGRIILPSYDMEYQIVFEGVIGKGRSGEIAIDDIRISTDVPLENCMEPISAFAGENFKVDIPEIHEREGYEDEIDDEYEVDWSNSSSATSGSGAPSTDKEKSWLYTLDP

T2: recombinant NRP1 Fc protein (UniProt O14786-2 22-644, limits assumed)
T2 construct: Construct not described
T2 sequence (looked up): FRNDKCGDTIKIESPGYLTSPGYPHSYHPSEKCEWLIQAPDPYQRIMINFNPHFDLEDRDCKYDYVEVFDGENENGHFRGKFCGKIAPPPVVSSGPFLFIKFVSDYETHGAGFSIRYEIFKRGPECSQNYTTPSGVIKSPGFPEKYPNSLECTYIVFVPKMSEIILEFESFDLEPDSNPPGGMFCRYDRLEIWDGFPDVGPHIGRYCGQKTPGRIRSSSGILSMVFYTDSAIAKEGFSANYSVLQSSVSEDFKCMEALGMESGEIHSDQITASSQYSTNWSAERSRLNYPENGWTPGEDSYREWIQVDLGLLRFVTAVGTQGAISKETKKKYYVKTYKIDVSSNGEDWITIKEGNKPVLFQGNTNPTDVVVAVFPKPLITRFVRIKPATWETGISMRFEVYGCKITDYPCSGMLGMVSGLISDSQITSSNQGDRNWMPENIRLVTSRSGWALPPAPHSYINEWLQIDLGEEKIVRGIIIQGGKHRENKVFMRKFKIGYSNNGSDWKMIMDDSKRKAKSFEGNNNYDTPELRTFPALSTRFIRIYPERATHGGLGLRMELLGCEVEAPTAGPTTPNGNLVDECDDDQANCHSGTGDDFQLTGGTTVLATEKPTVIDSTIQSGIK

T3: CD5 of OKT3-activated primary αβ T cells (human, UniProt P06127 25-495)
T3 construct: whole, on cells
T3 sequence (looked up): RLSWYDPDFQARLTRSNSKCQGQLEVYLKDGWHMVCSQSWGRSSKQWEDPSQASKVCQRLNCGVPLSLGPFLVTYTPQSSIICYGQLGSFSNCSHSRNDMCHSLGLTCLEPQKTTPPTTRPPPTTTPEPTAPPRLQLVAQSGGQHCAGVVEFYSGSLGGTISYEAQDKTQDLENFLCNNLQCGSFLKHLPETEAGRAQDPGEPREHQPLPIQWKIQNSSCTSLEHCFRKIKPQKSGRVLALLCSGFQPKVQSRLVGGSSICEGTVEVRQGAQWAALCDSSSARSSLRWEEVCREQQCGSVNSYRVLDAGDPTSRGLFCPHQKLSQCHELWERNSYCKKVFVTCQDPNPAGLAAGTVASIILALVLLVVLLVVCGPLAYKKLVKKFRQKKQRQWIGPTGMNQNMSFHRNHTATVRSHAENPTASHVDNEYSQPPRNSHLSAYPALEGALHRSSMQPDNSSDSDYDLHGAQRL

T4: CD2 of OKT3-activated primary αβ T cells (human, UniProt P06729 25-351)
T4 construct: whole, on cells
T4 sequence (looked up): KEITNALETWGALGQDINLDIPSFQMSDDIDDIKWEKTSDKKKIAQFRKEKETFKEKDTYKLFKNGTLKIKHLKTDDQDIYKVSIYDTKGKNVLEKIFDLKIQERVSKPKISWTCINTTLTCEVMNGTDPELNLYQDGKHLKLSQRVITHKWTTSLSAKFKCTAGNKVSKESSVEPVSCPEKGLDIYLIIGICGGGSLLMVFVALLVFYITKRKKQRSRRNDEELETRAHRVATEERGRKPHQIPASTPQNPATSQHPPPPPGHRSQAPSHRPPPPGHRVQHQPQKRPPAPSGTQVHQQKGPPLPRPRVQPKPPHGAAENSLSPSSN

B1: recombinant NKG2A Fc protein (Fc fusion, not shown: a dimerising Fc or GST)
chain: not shown
notes: Construct not described
B2: human BTN3A1 (CD277) expressed on the cell surface (BTN-K32 aAPCs: K562 cells expressing human CD32 and BTN3A1; BMDCs of BTN3A1 knock-in mice) (receptor)
chain: not shown
notes: also called BTNA31-K32; BTN3-K32
B3: BTN3A1-Fc fusion protein (R&D systems Cat #8539-BT-050) (Fc fusion)
chain: not shown
notes: Bought from R&D systems; also called BTN3A1-Fc proteins; CD277; not shown: Fc part of the bought fusion protein
B4: anti-CD277 monoclonal antibody mAb1 (antibody, human IgG1, kappa, N297A)
heavy: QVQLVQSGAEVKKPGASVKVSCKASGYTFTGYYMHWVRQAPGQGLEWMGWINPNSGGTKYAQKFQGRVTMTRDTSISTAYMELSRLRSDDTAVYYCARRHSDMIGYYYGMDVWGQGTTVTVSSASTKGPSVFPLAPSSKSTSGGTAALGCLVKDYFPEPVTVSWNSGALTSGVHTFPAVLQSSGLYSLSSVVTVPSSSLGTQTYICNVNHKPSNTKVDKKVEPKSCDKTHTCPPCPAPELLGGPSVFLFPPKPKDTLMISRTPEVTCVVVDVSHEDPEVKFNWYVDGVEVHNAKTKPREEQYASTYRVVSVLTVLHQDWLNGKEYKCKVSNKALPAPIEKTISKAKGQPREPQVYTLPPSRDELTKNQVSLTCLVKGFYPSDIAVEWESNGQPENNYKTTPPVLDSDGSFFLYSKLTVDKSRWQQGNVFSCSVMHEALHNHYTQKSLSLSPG
light: DIQMTQSPSSVSASVGDRVTITCRASQGISSWLAWYQQKPGKAPKLLIYAASSLQSGVPSRFSGSGSGTDFTLTISSLQPEDFATYYCQQATDFPPTFGGGTKVEIKRTVAAPSVFIFPPSDEQLKSGTASVVCLLNNFYPREAKVQWKVDNALQSGNSQESVTEQDSKDSTYSLSSTLTLSKADYEKHKVYACEVTHQGLSSPVTKSFNRGEC
notes: also called anti-CD277 antibody mAb1; anti-CD277 mAb1

Experiments:
[1] = molecular target: B2; assay: binding of recombinant Fc proteins to BTN-K32 aAPCs vs. mock-transduced aAPCs
[2] = molecular target: T1, recombinant NRP2 Fc protein; assay: as above
[3] = molecular target: T2, recombinant NRP1 Fc protein; assay: as above
[4] = molecular target: T3, CD5 of OKT3-activated primary αβ T cells; assay: co-immunoprecipitation from activated primary αβ T cells after DTSSP crosslinking, LC-MS/MS
Method: (§1) Proteins were eluted with LDS sample buffer supplemented with DTT by heating at 70° C. for 10 minutes. Eluted fractions from BTN3A1-Fc and control were run into an SDS-gel for 0.5 cm, and the entire gel lanes were excised and digested with trypsin. Liquid chromatography tandem mass spectrometry (LC-MS/MS) analysis of tryptic digests was performed by the Wistar Proteomics and Metabolomics Facility using a Q Exactive HF mass spectrometer (Thermo Scientific). MS/MS spectra generated from the LC-MS/MS runs were searched using full tryptic specificity against the UniProt human database (www.uniprot.org; Oct. 1, 2017) using the MaxQuant 1.6.0.16 program. Protein quantitation was based on intensity and MS/MS count was determined from unique and razor peptides (J. Cox, M. Mann, MaxQuant enables high peptide identification rates, individualized p.p.b.-range mass accuracies and proteome-wide protein quantification. Nat Biotechnol 26, 1367-1372 (2008)). False discovery rates for protein and peptide were set at 1%. Protein tables were filtered to remove reverse database entries, common contaminants, and proteins identified by a single peptide.
(§2) To determine the mechanism by which BTN3A1 (also referred to herein as CD277) inhibits αβ T cell activity, the binding of BTN3A1 to potential immunosuppressive receptors was ruled out by comparing the binding of recombinant NKG2A, GPR174, NRP1, NRP2, PD-1, CTLA4, TIM-3 and BTLA Fc proteins to MHC-I⁻CD32⁺ K562 artificial Antigen-Presenting Cells with BTN3A1 retrovirally expressed on the surface of the cell (BTN-K32 aAPCs) vs. mock-transduced aAPCs. Binding of BTN3A1 to these immunosuppressive receptors was not observed. BTN3A1-Fc proteins were then used to co-immunoprecipitate (co-IP) the binding partner(s) of BTN3A1 on OKT3-activated primary αβ T cells from three independent pull downs from three different donors.

[5] = molecular target: T5, CD44 of OKT3-activated primary αβ T cells (human, UniProt P16070 21-742); assay: as above
T5 construct: whole, on cells
T5 sequence (P16070 21-742): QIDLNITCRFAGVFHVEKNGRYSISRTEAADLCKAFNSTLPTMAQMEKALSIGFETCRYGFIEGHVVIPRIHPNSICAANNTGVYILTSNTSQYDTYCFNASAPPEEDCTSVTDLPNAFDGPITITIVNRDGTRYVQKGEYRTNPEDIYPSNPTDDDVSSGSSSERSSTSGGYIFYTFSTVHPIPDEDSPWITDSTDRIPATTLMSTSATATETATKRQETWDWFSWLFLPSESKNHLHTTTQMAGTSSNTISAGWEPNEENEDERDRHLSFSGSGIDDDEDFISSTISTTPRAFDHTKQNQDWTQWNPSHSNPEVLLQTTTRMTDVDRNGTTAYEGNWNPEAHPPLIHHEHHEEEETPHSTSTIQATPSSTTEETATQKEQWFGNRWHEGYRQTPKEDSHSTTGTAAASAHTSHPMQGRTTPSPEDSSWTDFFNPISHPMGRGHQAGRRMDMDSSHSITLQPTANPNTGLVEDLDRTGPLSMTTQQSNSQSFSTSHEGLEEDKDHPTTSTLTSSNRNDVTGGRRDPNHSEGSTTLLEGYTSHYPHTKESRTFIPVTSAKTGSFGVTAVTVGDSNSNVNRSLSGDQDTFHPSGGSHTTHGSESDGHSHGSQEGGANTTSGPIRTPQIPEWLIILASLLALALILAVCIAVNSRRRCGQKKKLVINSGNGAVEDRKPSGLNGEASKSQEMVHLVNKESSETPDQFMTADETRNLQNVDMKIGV
Method: as §1, §2

[6] = molecular target: T4, CD2 of OKT3-activated primary αβ T cells; assay: as above
Method: as §1, §2

[7] = molecular target: B2; assay: cell-based or functional assay
[8] = molecular target: T6, biotinylated human CD277 Fc fusion (human, UniProt O00481 30-254, limits assumed, biotinylated with EZ-Link Sulfo-NHS biotinylation reagent (sites not given)); assay: yeast display selection (MACS and FACS) for binders of biotinylated human CD277 Fc fusion
T6 construct: also called human CD277 Fc fusion antigen

Binder: B1
- binding result [1]: no binding

Binder: B2
- binding result [2]: no binding
- binding result [3]: no binding

Binder: B3
- binding result [4]: no binding (tested: 10 µg/ml BTN3A1-Fc)
- binding result [5]: no binding (tested: 10 µg/ml BTN3A1-Fc)
- binding result [6]: no binding (tested: 10 µg/ml BTN3A1-Fc)

Binder: B4
- IFN-γ release of purified CD4+ T cells stimulated with BTN-K32 cells (ELISA, fold over baseline) [7]: > 2 fold
- IFN-γ release of purified CD8+ T cells stimulated with BTN-K32 cells (ELISA, fold) [7]: ~1300 fold
- proliferation of gated CD4+ T cells within total PBMCs stimulated with anti-CD3/anti-CD28 coated BTN-K32 cells (fold change) [7]: ≥ 1.5 fold
- proliferation of gated CD8+ T cells within total PBMCs stimulated with anti-CD3/anti-CD28 coated BTN-K32 cells (fold change) [7]: ≥ 1.5 fold
- proliferation of purified CD4+ T cells stimulated with BTN-K32 cells (fold change) [7]: ≥ 1.5 fold
- proliferation of purified CD8+ T cells stimulated with BTN-K32 cells (fold change) [7]: ≥ 2 fold
- binding result [8]: binds
